In the RNAGym collection of RNA variant scans (doi:10.1021/acssynbio.7b00057):

B1: Pistol ribozyme (parent)
chain: GGGUCGUUGUUCCAUAAUCGCGUGGAUAUGGCACGCAAGUUUCUACCGGGCACCGUAAAUGUCCGACUGGAGCCGUUCGGGCGGCUAUAAACAGACCUCAGGCCCGAAGCGUGGCGGCACCUGCCGCCGGUGGUAAAAAAGAUCGGAAGAGCACACGUCU

Variants of: B1
Test: aptazyme ON/OFF ratio, guanine; higher = stronger switching; co-transcriptional cleavage with and without guanine

| Variant | aptazyme ON/OFF ratio |
| --- | --- |
| GGGUCGUCCAGCGAUAAUCGCGUGGAUAUGGCACGCAAGUUUCUACCGGGCACCGUAAAUGUCCGACUGGAGCCGUUCGGGCGGCUAUAAACAGACCUCAGGCCCGAAGCGUGGCGGCACCUGCCGCCGGUGGUAAAAAAGAUCGGAAGAGCACACGUCU [U8C G9C U10A U11G C13G] | 1.2 |
| GGGUCGAGGCAAAAUAAUCGCGUGGAUAUGGCACGCAAGUUUCUACCGGGCACCGUAAAUGUCCGACUGGAGCCGUUCGGGCGGCUAUAAACAGACCUCAGGCCCGAAGCGUGGCGGCACCUGCCGCCGGUGGUAAAAAAGAUCGGAAGAGCACACGUCU [U7A U8G U10C U11A C12A C13A] | 1.27 |
| GGGUCGGUAUGCUAUAAUCGCGUGGAUAUGGCACGCAAGUUUCUACCGGGCACCGUAAAUGUCCGACUGGAGCCGUUCGGGCGGCUAUAAACAGACCUCAGGCCCGAAGCGUGGCGGCACCUGCCGCCGGUGGUAAAAAAGAUCGGAAGAGCACACGUCU [U7G G9A U11G C13U] | 1.16 |
| GGGUCGAGGACAGAUAAUCGCGUGGAUAUGGCACGCAAGUUUCUACCGGGCACCGUAAAUGUCCGACUGGAGCCGUUCGGGCGGCUAUAAACAGACCUCAGGCCCGAAGCGUGGCGGCACCUGCCGCCGGUGGUAAAAAAGAUCGGAAGAGCACACGUCU [U7A U8G U10A U11C C12A C13G] | 1.26 |
| GGGUCGGCAGCGGAUAAUCGCGUGGAUAUGGCACGCAAGUUUCUACCGGGCACCGUAAAUGUCCGACUGGAGCCGUUCGGGCGGCUAUAAACAGACCUCAGGCCCGAAGCGUGGCGGCACCUGCCGCCGGUGGUAAAAAAGAUCGGAAGAGCACACGUCU [U7G U8C G9A U10G U11C C12G C13G] | 1.02 |
| GGGUCGAGCGCUAAUAAUCGCGUGGAUAUGGCACGCAAGUUUCUACCGGGCACCGUAAAUGUCCGACUGGAGCCGUUCGGGCGGCUAUAAACAGACCUCAGGCCCGAAGCGUGGCGGCACCUGCCGCCGGUGGUAAAAAAGAUCGGAAGAGCACACGUCU [U7A U8G G9C U10G U11C C12U C13A] | 1.31 |
| GGGUCGCCCUGGGAUAAUCGCGUGGAUAUGGCACGCAAGUUUCUACCGGGCACCGUAAAUGUCCGACUGGAGCCGUUCGGGCGGCUAUAAACAGACCUCAGGCCCGAAGCGUGGCGGCACCUGCCGCCGGUGGUAAAAAAGAUCGGAAGAGCACACGUCU [U7C U8C G9C U11G C12G C13G] | 1.11 |
| GGGUCGCUUGUCAAUAAUCGCGUGGAUAUGGCACGCAAGUUUCUACCGGGCACCGUAAAUGUCCGACUGGAGCCGUUCGGGCGGCUAUAAACAGACCUCAGGCCCGAAGCGUGGCGGCACCUGCCGCCGGUGGUAAAAAAGAUCGGAAGAGCACACGUCU [U7C G9U U10G C13A] | 1.25 |
| GGGUCGGAAACUUAUAAUCGCGUGGAUAUGGCACGCAAGUUUCUACCGGGCACCGUAAAUGUCCGACUGGAGCCGUUCGGGCGGCUAUAAACAGACCUCAGGCCCGAAGCGUGGCGGCACCUGCCGCCGGUGGUAAAAAAGAUCGGAAGAGCACACGUCU [U7G U8A G9A U10A U11C C12U C13U] | 1.11 |
| GGGUCGAUAAUAGAUAAUCGCGUGGAUAUGGCACGCAAGUUUCUACCGGGCACCGUAAAUGUCCGACUGGAGCCGUUCGGGCGGCUAUAAACAGACCUCAGGCCCGAAGCGUGGCGGCACCUGCCGCCGGUGGUAAAAAAGAUCGGAAGAGCACACGUCU [U7A G9A U10A C12A C13G] | 1.07 |
| GGGUCGUUAUGGAAUAAUCGCGUGGAUAUGGCACGCAAGUUUCUACCGGGCACCGUAAAUGUCCGACUGGAGCCGUUCGGGCGGCUAUAAACAGACCUCAGGCCCGAAGCGUGGCGGCACCUGCCGCCGGUGGUAAAAAAGAUCGGAAGAGCACACGUCU [G9A U11G C12G C13A] | 1.18 |
| GGGUCGGAGUGCAAUAAUCGCGUGGAUAUGGCACGCAAGUUUCUACCGGGCACCGUAAAUGUCCGACUGGAGCCGUUCGGGCGGCUAUAAACAGACCUCAGGCCCGAAGCGUGGCGGCACCUGCCGCCGGUGGUAAAAAAGAUCGGAAGAGCACACGUCU [U7G U8A U11G C13A] | 1.2 |
| GGGUCGAGAUAAUAUAAUCGCGUGGAUAUGGCACGCAAGUUUCUACCGGGCACCGUAAAUGUCCGACUGGAGCCGUUCGGGCGGCUAUAAACAGACCUCAGGCCCGAAGCGUGGCGGCACCUGCCGCCGGUGGUAAAAAAGAUCGGAAGAGCACACGUCU [U7A U8G G9A U11A C12A C13U] | 1.16 |
| GGGUCGUGCAGGCAUAAUCGCGUGGAUAUGGCACGCAAGUUUCUACCGGGCACCGUAAAUGUCCGACUGGAGCCGUUCGGGCGGCUAUAAACAGACCUCAGGCCCGAAGCGUGGCGGCACCUGCCGCCGGUGGUAAAAAAGAUCGGAAGAGCACACGUCU [U8G G9C U10A U11G C12G] | 1.19 |
| GGGUCGGAUCACUAUAAUCGCGUGGAUAUGGCACGCAAGUUUCUACCGGGCACCGUAAAUGUCCGACUGGAGCCGUUCGGGCGGCUAUAAACAGACCUCAGGCCCGAAGCGUGGCGGCACCUGCCGCCGGUGGUAAAAAAGAUCGGAAGAGCACACGUCU [U7G U8A G9U U10C U11A C13U] | 1.08 |
| GGGUCGCCUGCCCAUAAUCGCGUGGAUAUGGCACGCAAGUUUCUACCGGGCACCGUAAAUGUCCGACUGGAGCCGUUCGGGCGGCUAUAAACAGACCUCAGGCCCGAAGCGUGGCGGCACCUGCCGCCGGUGGUAAAAAAGAUCGGAAGAGCACACGUCU [U7C U8C G9U U10G U11C] | 1.39 |
| GGGUCGUCUGUGUAUAAUCGCGUGGAUAUGGCACGCAAGUUUCUACCGGGCACCGUAAAUGUCCGACUGGAGCCGUUCGGGCGGCUAUAAACAGACCUCAGGCCCGAAGCGUGGCGGCACCUGCCGCCGGUGGUAAAAAAGAUCGGAAGAGCACACGUCU [U8C G9U U10G C12G C13U] | 1.3 |
| GGGUCGUACUAUAAUAAUCGCGUGGAUAUGGCACGCAAGUUUCUACCGGGCACCGUAAAUGUCCGACUGGAGCCGUUCGGGCGGCUAUAAACAGACCUCAGGCCCGAAGCGUGGCGGCACCUGCCGCCGGUGGUAAAAAAGAUCGGAAGAGCACACGUCU [U8A G9C U11A C12U C13A] | 1.14 |
